Laboratory results: publication PMC7282817

Target: Spen RRM2-4 RRM3 Mt ((SHARP named as human homolog for the pET28a constructs; gene listed as mouse NM_019763.2)) (UniProt Q96T58)
Test: fluorescence anisotropy
Details: pH 8.3; FA: 45 mM KCl, 5 mM NaCl, 50 mM Tris pH 7.5 (WT) or 8.3 (RRM3 Mt), 5% glycerol, RNA 1-3 nM, room temperature 40-60 min; competition EMSA: 50 mM Tris pH 7.5 …

UniProt Q96T58, sequence (Q96T58 whole entry): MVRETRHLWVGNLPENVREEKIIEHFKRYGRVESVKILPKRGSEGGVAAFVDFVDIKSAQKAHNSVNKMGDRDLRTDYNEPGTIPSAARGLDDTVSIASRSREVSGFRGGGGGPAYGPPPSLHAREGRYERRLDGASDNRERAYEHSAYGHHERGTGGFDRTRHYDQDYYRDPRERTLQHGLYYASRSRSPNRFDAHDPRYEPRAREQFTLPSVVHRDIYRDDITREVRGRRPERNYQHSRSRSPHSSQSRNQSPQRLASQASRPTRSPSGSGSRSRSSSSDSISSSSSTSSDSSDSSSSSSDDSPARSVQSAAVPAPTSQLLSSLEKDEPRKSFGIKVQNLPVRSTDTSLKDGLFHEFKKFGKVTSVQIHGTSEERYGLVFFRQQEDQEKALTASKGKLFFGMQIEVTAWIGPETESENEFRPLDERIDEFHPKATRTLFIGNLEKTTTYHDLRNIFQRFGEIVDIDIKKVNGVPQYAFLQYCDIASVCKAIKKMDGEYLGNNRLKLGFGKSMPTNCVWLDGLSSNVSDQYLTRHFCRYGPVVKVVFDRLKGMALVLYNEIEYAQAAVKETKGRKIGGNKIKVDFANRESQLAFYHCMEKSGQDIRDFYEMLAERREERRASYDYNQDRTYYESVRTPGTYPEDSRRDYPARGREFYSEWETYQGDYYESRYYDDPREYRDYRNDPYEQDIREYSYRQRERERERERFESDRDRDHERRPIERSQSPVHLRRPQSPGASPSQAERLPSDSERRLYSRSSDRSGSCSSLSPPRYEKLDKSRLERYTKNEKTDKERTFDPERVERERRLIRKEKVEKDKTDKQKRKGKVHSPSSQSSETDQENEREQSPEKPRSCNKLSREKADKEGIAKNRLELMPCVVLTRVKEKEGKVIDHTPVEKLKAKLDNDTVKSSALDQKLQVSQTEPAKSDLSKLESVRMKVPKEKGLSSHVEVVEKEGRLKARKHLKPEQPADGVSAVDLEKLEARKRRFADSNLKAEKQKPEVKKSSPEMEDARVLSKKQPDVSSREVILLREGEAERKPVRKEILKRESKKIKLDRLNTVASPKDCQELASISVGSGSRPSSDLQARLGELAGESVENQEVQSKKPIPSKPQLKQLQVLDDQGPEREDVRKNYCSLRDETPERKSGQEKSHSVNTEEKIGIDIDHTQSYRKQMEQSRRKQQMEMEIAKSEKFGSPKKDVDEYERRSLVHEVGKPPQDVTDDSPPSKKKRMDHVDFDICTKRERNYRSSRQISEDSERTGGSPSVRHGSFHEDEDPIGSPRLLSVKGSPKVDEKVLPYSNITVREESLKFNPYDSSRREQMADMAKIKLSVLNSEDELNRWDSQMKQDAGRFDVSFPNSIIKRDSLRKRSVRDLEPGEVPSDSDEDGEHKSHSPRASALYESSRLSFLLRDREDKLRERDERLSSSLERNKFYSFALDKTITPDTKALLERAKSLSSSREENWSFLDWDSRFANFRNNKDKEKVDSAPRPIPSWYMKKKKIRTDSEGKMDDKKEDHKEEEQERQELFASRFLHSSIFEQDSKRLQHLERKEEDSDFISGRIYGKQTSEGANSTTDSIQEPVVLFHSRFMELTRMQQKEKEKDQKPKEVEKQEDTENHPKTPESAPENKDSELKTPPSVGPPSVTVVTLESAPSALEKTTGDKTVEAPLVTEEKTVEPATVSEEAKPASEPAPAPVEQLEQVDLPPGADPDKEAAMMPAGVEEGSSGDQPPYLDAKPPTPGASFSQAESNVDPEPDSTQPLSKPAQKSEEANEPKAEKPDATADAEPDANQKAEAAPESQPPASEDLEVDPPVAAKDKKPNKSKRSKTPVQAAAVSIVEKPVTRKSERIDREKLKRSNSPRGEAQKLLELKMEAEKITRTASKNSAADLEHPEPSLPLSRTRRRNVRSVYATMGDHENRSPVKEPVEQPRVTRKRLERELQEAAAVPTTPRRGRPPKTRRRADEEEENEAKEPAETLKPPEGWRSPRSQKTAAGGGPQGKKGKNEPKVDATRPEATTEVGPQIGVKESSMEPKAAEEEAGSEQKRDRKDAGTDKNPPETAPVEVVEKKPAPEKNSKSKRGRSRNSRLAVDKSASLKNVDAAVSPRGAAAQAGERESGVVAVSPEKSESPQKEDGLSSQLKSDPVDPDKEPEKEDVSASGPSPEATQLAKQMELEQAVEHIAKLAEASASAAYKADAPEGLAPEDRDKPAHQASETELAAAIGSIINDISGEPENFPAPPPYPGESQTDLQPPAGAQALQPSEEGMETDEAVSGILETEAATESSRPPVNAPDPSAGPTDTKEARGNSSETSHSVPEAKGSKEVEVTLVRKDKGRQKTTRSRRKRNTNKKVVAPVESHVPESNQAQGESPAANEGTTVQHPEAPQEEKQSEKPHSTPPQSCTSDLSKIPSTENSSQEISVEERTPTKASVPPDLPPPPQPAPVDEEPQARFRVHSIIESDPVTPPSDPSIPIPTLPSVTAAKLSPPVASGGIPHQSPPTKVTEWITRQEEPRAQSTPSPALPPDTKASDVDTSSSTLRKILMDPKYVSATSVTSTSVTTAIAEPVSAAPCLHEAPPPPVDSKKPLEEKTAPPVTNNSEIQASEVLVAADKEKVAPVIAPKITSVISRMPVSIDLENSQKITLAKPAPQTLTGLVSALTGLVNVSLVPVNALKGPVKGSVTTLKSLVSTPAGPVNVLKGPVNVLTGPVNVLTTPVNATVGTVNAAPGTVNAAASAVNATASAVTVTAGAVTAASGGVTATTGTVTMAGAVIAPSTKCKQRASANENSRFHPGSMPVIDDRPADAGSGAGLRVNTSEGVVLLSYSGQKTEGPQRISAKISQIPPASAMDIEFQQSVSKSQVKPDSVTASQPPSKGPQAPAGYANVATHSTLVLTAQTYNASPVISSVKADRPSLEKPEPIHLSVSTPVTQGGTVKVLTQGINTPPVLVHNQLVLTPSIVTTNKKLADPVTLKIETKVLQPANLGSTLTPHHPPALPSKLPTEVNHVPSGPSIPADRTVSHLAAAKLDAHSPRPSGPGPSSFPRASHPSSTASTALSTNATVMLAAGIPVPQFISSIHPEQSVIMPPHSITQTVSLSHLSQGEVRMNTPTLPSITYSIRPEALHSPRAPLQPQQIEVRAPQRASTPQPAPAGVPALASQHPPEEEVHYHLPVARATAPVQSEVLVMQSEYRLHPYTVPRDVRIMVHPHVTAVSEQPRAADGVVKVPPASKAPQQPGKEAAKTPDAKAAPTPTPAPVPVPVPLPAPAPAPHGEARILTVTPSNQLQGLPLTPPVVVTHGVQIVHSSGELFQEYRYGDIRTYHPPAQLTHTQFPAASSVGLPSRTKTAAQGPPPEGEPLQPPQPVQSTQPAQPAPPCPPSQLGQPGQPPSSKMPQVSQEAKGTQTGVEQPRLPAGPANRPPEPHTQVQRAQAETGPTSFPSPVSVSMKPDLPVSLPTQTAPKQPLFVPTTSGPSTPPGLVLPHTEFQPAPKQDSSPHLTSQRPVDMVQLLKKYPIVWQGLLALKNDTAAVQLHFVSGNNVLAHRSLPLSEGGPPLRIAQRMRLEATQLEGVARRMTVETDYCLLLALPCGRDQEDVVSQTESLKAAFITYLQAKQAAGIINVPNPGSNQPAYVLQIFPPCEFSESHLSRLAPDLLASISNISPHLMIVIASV

Sequence	binding signal (affinity relative to RRM2-4)
GAAAUUUCUCUCUGGGCCUUAUAGCAGGAGUACUCUGUUCCCUUUUGUGUCUUGUCUAAUGUCCGGUGCACCAAUCUGUUCUCGUGUUCAAUUCAUGUAUGUUCGUGUCCAGU [ERV 495 (113 nt)]	0.5
GAUCAGAGUAACUGUCUUGGCUACAUUCUUUUCUCUCGCCACCUAGCCCCUCUUCUCUUCCAGGUUUCCAAAAUGCCUUUCCAGGCUAGAACCCAGGUUGUGGUCUGCUGG [ERV 302 (111 nt)]	0.5
GAUUCCAGGCAGAACUGUUGAGCAUAGAUAAUUUUCCCCCCUCAGGCCAGCUUUUUCUUUUUUUAAAUUUUGUUAAUAAAAGGGAG [ERV 205 (86 nt)]	0.5
GGAACUCGUUCCUUCUCCUUAGCCCAUCGGGGCCAUGGAUACCUGCUUUUAACCUUUCUCGGUCCAUCGGGACCUCGGAUACCUG [Xist A-repeat (85 nt)]	0.5
GGUACCUUAAAUCCUUGCUCUCACCCAAAAGAUUCAGAGACAAUAUCCUUUUAUUACUUAGGGUUUUAGUUUACUACAAAAGUUUCUACAAAAAAUAAAGCUUUUAUAA [ERV 411 (109 nt)]	0.5
GGUUAAAACUGCUAUUGUUCCAUUGACUGCAGCUUGCAGUUUGAUUUCAAAUUUAAGAUCUUUAAUUCACCUGUAUACUGUAAUUAAGAUAAUUACAAGAGUAAUCAUCUUAUG [ERV 509 (114 nt)]	0.5
